# Assay results as given in paper PMC12856111.
# Experiments:
# Test in all cases: SEC; Superdex 200 Increase 10/300 GL, 4°C; mFAS samples incubated at 37°C for 1 h beforehand to promote dimerization; oligomeric state read from the elution volume
# [1] = biological target: mFASΔTE S2014A (mouse) (UniProt P19096)
# [2] = biological target: mFASΔTE S2014A/Y2027F (mouse) (UniProt P19096)
# [3] = biological target: mFASΔTE (metazoan fatty acid synthase lacking the TE domain) (mouse) (UniProt P19096)
# [4] = biological target: mFASΔTE G2054F (mouse) (UniProt P19096)
# [5] = biological target: mFASΔTE Y2027F (mouse) (UniProt P19096)
# [6] = biological target: mFASΔTE T2076F (mouse) (UniProt P19096)
substance,measurement,setting,value
mFASΔTE S2014A (from UniProt P19096 1-2504) (enzyme),stoichiometry N,[1],2
mFASΔTE S2014A/Y2027F (from UniProt P19096 1-2504) (enzyme),stoichiometry N,[2],2
mFASΔTE (metazoan fatty acid synthase lacking the TE domain) (from UniProt P19096 1-2504) (enzyme),stoichiometry N,[3],2
mFASΔTE G2054F (from UniProt P19096 1-2504) (enzyme),stoichiometry N,[4],2
mFASΔTE Y2027F (from UniProt P19096 1-2504) (enzyme),stoichiometry N,[5],2
mFASΔTE T2076F (from UniProt P19096 1-2504) (enzyme),stoichiometry N,[6],2
